{
  "source": "patent US6713604",
  "about": "(TEXAS BIOTECHNOLOGY, dated 2004)",
  "binders": {"B1": {"name": "SEQ ID NO 39 (peptide)", "peptide": "[dC]SWLDV[dC]-OH", "modifications": "disulfide 1-7; N-terminus assumed", "SMILES": "CC(C)C[C@@H]1NC(=O)[C@H](Cc2c[nH]c3ccccc23)NC(=O)[C@H](CO)NC(=O)[C@H](N)CSSC[C@H](C(=O)O)NC(=O)[C@H](C(C)C)NC(=O)[C@H](CC(=O)O)NC1=O"}, "B2": {"name": "SEQ ID NO 9 (peptide)", "peptide": "SWLDVC-OH", "modifications": "thioether (positions not given here); not fully specified (N-terminus, bridges); printed as CH2CO-Ser-Trp-Leu-Asp-Val-Cys-acid; also: sulfide, sulfoxide or sulfone not given here", "notes": "also called CH2CO-Ser-Trp-Leu-Asp-Val-Cys-acid"}, "B3": {"name": "SEQ ID NO 7 (peptide)", "peptide": "GPEFLDV", "modifications": "cyclic: lactam formed by condensation of the N and C terminus", "notes": "Head-to-tail cyclic lactam; also called Gly-Pro-Glu-Phe-Leu-Asp-Val"}, "B4": {"name": "SEQ ID NO 42 (peptide)", "peptide": "[dPen]WLDVC-OH", "modifications": "disulfide 1-6; N-terminus assumed", "SMILES": "CC(C)C[C@@H]1NC(=O)[C@H](Cc2c[nH]c3ccccc23)NC(=O)[C@H](N)C(C)(C)SSC[C@@H](C(=O)O)NC(=O)[C@H](C(C)C)NC(=O)[C@H](CC(=O)O)NC1=O", "notes": "Disulfide cyclic peptide; also called dPen-Trp-Leu-Asp-Val-Cys-acid"}, "B5": {"name": "SEQ ID NO 10 (peptide)", "peptide": "{CH2CO}-EWLDVC-OH", "modifications": "thioether N-6; also: sulfide, sulfoxide or sulfone not given here", "notes": "also called CH2CO-Glu-Trp-Leu-Asp-Val-Cys-acid"}, "B6": {"name": "SEQ ID NO 4 (peptide)", "peptide": "EWLDV", "modifications": "cyclic: lactam formed by condensation of the N and C terminus", "notes": "Head-to-tail cyclic lactam; also called Glu-Trp-Leu-Asp-Val"}, "B7": {"name": "SEQ ID NO 5 (peptide)", "peptide": "EWLDD", "modifications": "cyclic: lactam formed by condensation of the N and C terminus", "notes": "Head-to-tail cyclic lactam; also called Glu-Trp-Leu-Asp-Asp"}, "B8": {"name": "fusion protein of the two N-terminal domains of human VCAM with the hinge, CH2 and CH3 regions of mouse IgG2A (Fc fusion, UniProt P19320 25-220, looked up)", "chain": "FKIETTPESRYLAQIGDSVSLTCSTTGCESPFFSWRTQIDSPLNGKVTNEGTTSTLTMNPVSFGNEHSYLCTATCESRKLEKGIQVEIYSFPKDPEIHLSGPLEAGKPITVKCSVADVYPFDRLEIDLLKGDHLMKSQEFLEDADRKSLETKSLEVTFTPVIEDIGKVLVCRAKLHIDEMDSVPTVRQAVKELQVY", "notes": "domain: two N-terminal domains; Secreted from transfected COS cells and captured on Dynal magnetic beads coated with goat anti-mouse IgG; also called VCAM-1; purified VCAM; not shown: mouse IgG2A hinge, CH2 and CH3 regions, amplified from cDNA of the hybridoma cell line 402C10"}},
  "note": "Bridges are numbered along the chain shown (N, C = ends). Where no end group is shown, it is not given here. [ ]: non-standard residue; d: D form. dPen = CC(C)(S)[C@@H](N)C(=O)O",
  "data": [
    {"target": "integrin α4β1 (human) (UniProt P13612)", "sequence (P13612 34-1032, chain 1 of 2)": "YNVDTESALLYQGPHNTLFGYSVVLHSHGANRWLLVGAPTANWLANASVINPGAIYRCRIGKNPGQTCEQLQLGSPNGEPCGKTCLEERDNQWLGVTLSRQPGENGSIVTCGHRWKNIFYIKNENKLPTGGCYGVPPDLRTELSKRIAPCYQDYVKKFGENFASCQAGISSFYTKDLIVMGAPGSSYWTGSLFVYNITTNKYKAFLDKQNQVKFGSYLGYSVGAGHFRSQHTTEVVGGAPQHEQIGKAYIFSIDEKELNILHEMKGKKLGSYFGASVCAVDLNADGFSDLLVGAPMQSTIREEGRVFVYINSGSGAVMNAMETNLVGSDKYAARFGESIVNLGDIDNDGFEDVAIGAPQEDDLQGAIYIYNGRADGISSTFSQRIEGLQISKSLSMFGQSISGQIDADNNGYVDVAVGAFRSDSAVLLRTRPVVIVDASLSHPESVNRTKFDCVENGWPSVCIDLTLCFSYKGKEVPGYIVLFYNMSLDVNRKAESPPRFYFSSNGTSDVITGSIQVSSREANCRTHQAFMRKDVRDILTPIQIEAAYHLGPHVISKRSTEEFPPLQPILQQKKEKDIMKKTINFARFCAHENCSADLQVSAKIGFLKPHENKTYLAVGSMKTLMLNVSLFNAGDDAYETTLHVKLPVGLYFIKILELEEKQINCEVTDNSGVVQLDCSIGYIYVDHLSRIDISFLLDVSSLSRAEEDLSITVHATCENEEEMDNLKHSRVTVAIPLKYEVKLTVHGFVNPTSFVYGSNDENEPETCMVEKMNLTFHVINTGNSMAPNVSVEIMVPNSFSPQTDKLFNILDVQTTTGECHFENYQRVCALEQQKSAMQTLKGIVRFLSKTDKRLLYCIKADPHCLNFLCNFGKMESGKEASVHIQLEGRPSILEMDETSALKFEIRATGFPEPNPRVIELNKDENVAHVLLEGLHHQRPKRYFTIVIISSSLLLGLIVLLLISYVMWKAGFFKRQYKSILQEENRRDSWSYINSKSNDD", "sequence (P05556 21-798, chain 2 of 2, further chain)": "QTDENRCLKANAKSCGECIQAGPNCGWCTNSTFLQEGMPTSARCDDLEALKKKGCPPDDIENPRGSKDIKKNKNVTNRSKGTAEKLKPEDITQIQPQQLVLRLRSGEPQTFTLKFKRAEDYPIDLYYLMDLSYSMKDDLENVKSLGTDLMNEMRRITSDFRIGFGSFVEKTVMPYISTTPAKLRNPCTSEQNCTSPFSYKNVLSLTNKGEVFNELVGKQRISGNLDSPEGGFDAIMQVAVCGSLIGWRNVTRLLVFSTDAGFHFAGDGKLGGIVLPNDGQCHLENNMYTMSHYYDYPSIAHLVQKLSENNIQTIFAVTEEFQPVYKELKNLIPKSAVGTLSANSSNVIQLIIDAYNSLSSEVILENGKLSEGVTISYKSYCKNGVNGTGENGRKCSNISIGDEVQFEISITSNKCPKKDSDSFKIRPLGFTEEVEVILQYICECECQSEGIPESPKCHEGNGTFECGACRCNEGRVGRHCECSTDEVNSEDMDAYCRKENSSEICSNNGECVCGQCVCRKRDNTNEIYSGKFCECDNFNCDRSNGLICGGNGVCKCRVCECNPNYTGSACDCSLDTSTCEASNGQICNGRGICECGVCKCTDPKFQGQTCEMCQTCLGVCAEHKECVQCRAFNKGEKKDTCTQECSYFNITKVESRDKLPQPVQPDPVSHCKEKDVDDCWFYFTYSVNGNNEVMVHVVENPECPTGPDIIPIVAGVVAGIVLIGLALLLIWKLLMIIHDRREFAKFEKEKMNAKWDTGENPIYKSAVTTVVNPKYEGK", "experiment": "inhibition of HL-60 cell (α4β1) binding to VCAM-IgG coated beads, fluorimetry", "units": {"peptide concentration that significantly inhibits binding": "µM"}, "values": [
      {"binder": "B1", "peptide concentration that significantly inhibits binding": "< 10"}
    ]},
    {"target": "T1, integrin α4β1 (human, UniProt P13612 34-1032; P05556 21-798)", "T1 construct": "whole, on cells; also called VLA-4; very late antigen-4", "T1 sequence (P13612 34-1032, chain 1 of 2)": "as the sequence (P13612 34-1032, chain 1 of 2) above", "T1 sequence (P05556 21-798, chain 2 of 2)": "as the sequence (P05556 21-798, chain 2 of 2, further chain) above", "experiment": "inhibition of HL-60 cell (α4β1) binding to VCAM-IgG coated beads, fluorimetry", "description": "(§1) The media was collected and active protein was purified by immunoprecipitation using Dynal magnetic polystyrene beads coated with goat anti-mouse IgG. Following immunoprecipitation, the beads bound cells that expressed the integrin α_4β_1 such as Ramos and HL-60.\nHL-60 cells were fluorescently labeled with Calcein AM C-3099 (Molecular Probes) and resuspended in 1 ml of binding buffer (Hank's balanced salt solution, pH 7.4, 1.0 mM CaCl_2, 1.0 mM MgCl_2). The beads (10 µl, 4×10^6 beads/ml) were placed in wells of a 96-well microtiter dish with 10 µl of peptide at various concentrations. The beads were incubated with 10 µl of labeled cells (10^7 cells/ml) for 10 min at room temperature. Following immobilization of the beads onto the plastic with a magnet, unbound cells were removed by washing three times with binding buffer. The remaining bound cells were lysed in 50 mM Tris, pH 7.4, 5.0 mM EDTA, 1.0% NP-40 and quantitated by fluorimetry using a Millipore Cytofluor 2350 fluorimeter. Dose response curves were calculated and IC$50$ values determined. Alternatively, the percent adhesion was determined at a single peptide concentration for comparison among peptides.", "units": {"peptide concentration that significantly inhibits binding": "µM"}, "values": [
      {"binder": "EWLDVPEWLDV (cyclic: lactam formed by condensation of the N and C terminus, Head-to-tail cyclic lactam)", "note": "[SEQ ID NO 6]", "peptide concentration that significantly inhibits binding": "< 10"},
      {"binder": "B2", "peptide concentration that significantly inhibits binding": "< 10"},
      {"binder": "B3", "peptide concentration that significantly inhibits binding": "< 10"},
      {"binder": "B4", "peptide concentration that significantly inhibits binding": "< 10"},
      {"binder": "B5", "peptide concentration that significantly inhibits binding": "< 10"},
      {"binder": "B6", "peptide concentration that significantly inhibits binding": "< 10"},
      {"binder": "B7", "peptide concentration that significantly inhibits binding": "< 10"}
    ]},
    {"target": "T1, integrin α4β1", "experiment": "VCAM-IgG fusion on goat anti-mouse IgG magnetic beads; binding of Ramos and HL-60 cells", "from_the_text": "as §1", "values": [
      {"binder": "B8", "binding result": "binds"}
    ]}
  ]
}
